This passage reports EC50 results from US20240018237A1 (SICHUAN KELUN BIOTECH BIOPHARMACEUTICAL, published 2024).

For assay [1], the target named is T1, human ROR1 (full-length, on the cell surface) (human, UniProt Q01973 30-937).
T1 construct: whole, on cells; the tumour cell lines carry their own ROR1; also called Ba/F3-ROR1 cells; Jeko-1
Put plainly: flow cytometry, Ba/F3-ROR1 cells.

The target of assay [2] is T1, human ROR1 (full-length, on the cell …). Put plainly: flow cytometry, Jeko-1 cells. How it is done: (§1) The affinities of the anti-human ROR1 humanized antibodies to Ba/F3-ROR1, Jeko-1, HT-29 and A549 cells were detected by flow cytometry. The specific experimental steps were as follows: the BaBF3-ROR1, Jeko-1, HT-29 and A549 cells were incubated with the purified humanized antibodies of different concentration gradients on ice for 30 minutes, and the anti-ROR1 antibody UC961 with human IgG1 and the anti-TNP antibody were used as positive and negative controls, respectively.

For assay [3] the target is unchanged. Put plainly: flow cytometry, HT-29 cells. How it is done: as §1
The target is the same in assay [4]. Briefly: flow cytometry, A549 cells. How it is done:
as §1

For assay [5] the target is unchanged. Briefly: flow cytometry, Ba/F3-ROR1 cells. Here is the method:
as §1
The source holds these as a separate data set.

T1 sequence (Q01973 30-937): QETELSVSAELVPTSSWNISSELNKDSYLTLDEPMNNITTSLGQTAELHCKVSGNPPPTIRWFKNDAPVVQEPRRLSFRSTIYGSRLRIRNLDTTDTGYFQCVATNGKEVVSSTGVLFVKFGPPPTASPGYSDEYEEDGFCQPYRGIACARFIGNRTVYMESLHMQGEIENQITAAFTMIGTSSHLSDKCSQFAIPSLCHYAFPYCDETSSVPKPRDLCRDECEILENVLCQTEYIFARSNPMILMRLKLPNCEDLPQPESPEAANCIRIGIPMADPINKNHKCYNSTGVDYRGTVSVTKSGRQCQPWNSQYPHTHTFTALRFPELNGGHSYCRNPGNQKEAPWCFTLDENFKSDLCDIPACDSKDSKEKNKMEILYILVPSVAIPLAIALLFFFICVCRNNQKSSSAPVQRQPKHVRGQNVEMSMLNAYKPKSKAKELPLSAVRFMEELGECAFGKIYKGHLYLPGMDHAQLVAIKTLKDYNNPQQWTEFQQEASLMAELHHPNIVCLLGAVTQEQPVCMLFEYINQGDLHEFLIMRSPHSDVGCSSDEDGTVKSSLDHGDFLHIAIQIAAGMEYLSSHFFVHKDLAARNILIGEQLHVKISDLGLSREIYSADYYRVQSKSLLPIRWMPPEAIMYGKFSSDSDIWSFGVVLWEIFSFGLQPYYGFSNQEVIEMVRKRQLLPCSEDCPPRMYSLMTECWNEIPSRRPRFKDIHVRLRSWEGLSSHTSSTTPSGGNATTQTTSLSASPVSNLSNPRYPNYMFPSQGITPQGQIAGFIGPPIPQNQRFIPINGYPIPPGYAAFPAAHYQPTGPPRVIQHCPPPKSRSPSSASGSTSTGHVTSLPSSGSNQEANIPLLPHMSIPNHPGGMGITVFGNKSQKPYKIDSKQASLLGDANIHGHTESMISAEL

B1: 19F6-Hu35V5 (antibody, human IgG1, kappa, V domains shown)
VH: QVQLQESGPGLVKPSQTLSLTCTVSGYSITSDYAWNWIRQFPGKGLEWIGYISYSGSIRYNPSLKSRVTISRDTSKNQFSLKLSSVTAADTAVYYCARGEITYYFDYWGQGTLVTVSS
VL: ETTLTQSPAFMSATPGDKVTISCKASTDIDDDMNWYQQKPGKPPKLIISEGNTLRPGIPPRFSSSGYGTDFTFTINNIKSEDAATYYCLQSNDLPLTFGQGTKLEIKR
notes: humanized, human IgG1 / kappa
For B1, the concentration giving a half-maximal response (EC50) in assay [1] came to 170 pM; in assay [2], 130 pM; in assay [3], 170 pM; in assay [4] it was 160 pM.

B2: 19F6-Hu35 (antibody, human IgG1, kappa, V domains shown)
VH: QVQLQESGPGLVKPSQTLSLTCTVSGYSITSDYAWNWIRQFPGKGLEWIGYISYSGSIRYNPSLKSRVTISRDTSKNQFSLKLSSVTAADTAVYYCARGEITYYFDYWGQGTLVTVSS
VL: ETTLTQSPAFMSATPGDKVTISCKASTDIDDDMNWYQQKPGEPPKLIISEGNTLRPGIPPRFSSSGYGTDFTFTINNIESEDAADYYCLQSNDLPLTFGQGTKLEIKR
notes: humanized, human IgG1 / kappa
B2: the EC50 in assay [1] was 380 pM; in assay [2], 150 pM; in assay [3], 90 pM; in assay [4], 80 pM.

B3: 19F6-Hu15 (antibody, human IgG1, kappa, V domains shown)
VH: QVQLQESGPGLVKPSETLSLTCTVTGYSITSDYAWNWIRQPPGKGLEWMGYISYSGSIRYKPSLKDRITISRDTSKNQFSLKLSSVTAADTAVYYCARGEITYYFDYWGQGTLVTVSS
VL: ETTLTQSPAFMSATPGDKVTISCKASTDIDDDMNWYQQKPGEPPKLIISEGNTLRPGIPPRFSSSGYGTDFTFTINNIESEDAADYYCLQSNDLPLTFGQGTKLEIKR
notes: humanized, human IgG1 / kappa
B3: the EC50 is 330 pM in assay [1], 210 pM in assay [2], 70 pM in assay [3] and 90 pM in assay [4].

B4: 19F6-Hu35V2 (antibody, human IgG1, kappa, V domains shown)
VH: QVQLQESGPGLVKPSQTLSLTCTVSGYSITSDYAWNWIRQFPGKGLEWIGYISYSGSIRYNPSLKSRVTISRDTSKNQFSLKLSSVTAADTAVYYCARGEITYYFDYWGQGTLVTVSS
VL: ETTLTQSPAFMSATPGDKVTISCKASTDIDSDMNWYQQKPGEPPKLIISEGNTLRPGIPPRFSSSGYGTDFTFTINKIKSEDAATYYCLQSNDLPLTFGQGTKLEIKR
notes: humanized, human IgG1 / kappa
With B4, the EC50 in assay [1] worked out at 190 pM; in assay [2], 190 pM; in assay [3] it was 180 pM; in assay [4], 100 pM.

B5: 19F6-Hu25 (antibody, human IgG1, kappa, V domains shown)
VH: QVQLQESGPGLVKPSETLSLTCTVSGYSITSDYAWNWIRQPPGKGLEWMGYISYSGSIRYNPSLKDRITISRDTSKNQFSLKLSSVTAADTAVYYCARGEITYYFDYWGQGTLVTVSS
VL: ETTLTQSPAFMSATPGDKVTISCKASTDIDDDMNWYQQKPGEPPKLIISEGNTLRPGIPPRFSSSGYGTDFTFTINNIESEDAADYYCLQSNDLPLTFGQGTKLEIKR
notes: humanized, human IgG1 / kappa
For the molecule B5, the EC50 in assay [1] turned out to be 610 pM; in assay [2], 190 pM; in assay [3] it was 80 pM; in assay [4], 130 pM.

B6: 38F8-Hu34 (antibody, human IgG1, kappa, V domains shown)
VH: QVQLVESGGGLVKPGGSLRLSCAASGFTFSNYAMSWVRQAPGKGLEWVASISSGGPTYYADSVKGRFTISRDNAKNSLYLQMNSLRAEDTAVYYCARGYRYDVNWYFDVWGAGTMVTVSS
VL: DIQMTQSPSSLSASVGDRVTITCQASQDISNYLTWFQQKPGKSPKTLIHRANRLVTGVPSRFSGSGSGTDFTFTISSLQPEDIATYYCLQYDEFPYTFGGGTKVEIKR
notes: humanized, human IgG1 / kappa
As to B6, the EC50 in assay [2] was 60 pM; in assay [5], 1230 pM; in assay [3] it was 290 pM; in assay [4] it was 190 pM.

B7: 38F8-Hu54 (antibody, human IgG1, kappa, V domains shown)
VH: EVQLVESGGGLVQPGGSLRLSCAASGFTFSNYAMSWVRQAPEKRLEWVASISSGGPTYYPDSVKGRFTVSRDNSKNTLYLQMNSLRAEDTAVYYCARGYRYDVNWYFDVWGAGTMVTVSS
VL: DIQMTQSPSSLSASVGDRVTITCQASQDISNYLTWFQQKPGKSPKTLIHRANRLVTGVPSRFSGSGSGTDFTFTISSLQPEDIATYYCLQYDEFPYTFGGGTKVEIKR
notes: humanized, human IgG1 / kappa
Regarding B7, the EC50 was 90 pM in assay [2], 1570 pM in assay [5], 490 pM in assay [3] and 460 pM in assay [4].

B8: 38F8-Hu36 (antibody, human IgG1, kappa, V domains shown)
VH: QVQLVESGGGLVKPGGSLRLSCAASGFTFSNYAMSWVRQAPGKGLEWVASISSGGPTYYADSVKGRFTISRDNAKNSLYLQMNSLRAEDTAVYYCARGYRYDVNWYFDVWGAGTMVTVSS
VL: DIQMTQSPSSLSASVGDRVTITCQASQDINSYLTWFQQKPGKSPKTLIHRANRLVTGVPSRFSGSGSGTDFTFTISSLQPEDIATYYCLQYDEFPYTFGGGTKVEIKR
notes: humanized, human IgG1 / kappa
For the molecule B8, the EC50 in assay [2] is 90 pM; in assay [5], 1160 pM; in assay [3], 370 pM; in assay [4], 300 pM.

B9: 38F8-Hu56 (antibody, human IgG1, kappa, V domains shown)
VH: EVQLVESGGGLVQPGGSLRLSCAASGFTFSNYAMSWVRQAPEKRLEWVASISSGGPTYYPDSVKGRFTVSRDNSKNTLYLQMNSLRAEDTAVYYCARGYRYDVNWYFDVWGAGTMVTVSS
VL: DIQMTQSPSSLSASVGDRVTITCQASQDINSYLTWFQQKPGKSPKTLIHRANRLVTGVPSRFSGSGSGTDFTFTISSLQPEDIATYYCLQYDEFPYTFGGGTKVEIKR
notes: humanized, human IgG1 / kappa
Turning to B9, the EC50 amounted to 100 pM in assay [2], 1090 pM in assay [5], 420 pM in assay [3] and 320 pM in assay [4].

B10: 38F8-Hu66 (antibody, human IgG1, kappa, V domains shown)
VH: QVQLVESGGGLVKPGGSLRLSCAASGFTFSNYAMSWVRQAPEKRLEWVASISSGGPTYYPDSVKGRFTISRDNAKNSLYLQMNSLRAEDTAVYYCARGYRYDVNWYFDVWGAGTMVTVSS
VL: DIQMTQSPSSLSASVGDRVTITCQASQDINSYLTWFQQKPGKSPKTLIHRANRLVTGVPSRFSGSGSGTDFTFTISSLQPEDIATYYCLQYDEFPYTFGGGTKVEIKR
notes: humanized, human IgG1 / kappa
As for B10, the EC50 amounted to 110 pM in assay [2], 930 pM in assay [5], 440 pM in assay [3] and 350 pM in assay [4].

B11: 38F8-Hu38 (antibody, human IgG1, kappa, V domains shown)
VH: QVQLVESGGGLVKPGGSLRLSCAASGFTFSNYAMSWVRQAPGKGLEWVASISSGGPTYYADSVKGRFTISRDNAKNSLYLQMNSLRAEDTAVYYCARGYRYDVNWYFDVWGAGTMVTVSS
VL: DIQMTQSPSSLSASVGDRVTITCQASQDINSYLTWFQQKPGKSPKTLIHRANRLVTGVPSRFSGSGSGTDYTFTISSLQPEDIAIYYCLQYDEFPYTFGGGTKVEIKR
notes: humanized, human IgG1 / kappa
For the molecule B11, the EC50 in assay [2] was determined as 130 pM; in assay [5], 1430 pM; in assay [3] it was 590 pM; in assay [4], 380 pM.

B12: 38F8-Hu68 (antibody, human IgG1, kappa, V domains shown)
VH: QVQLVESGGGLVKPGGSLRLSCAASGFTFSNYAMSWVRQAPEKRLEWVASISSGGPTYYPDSVKGRFTISRDNAKNSLYLQMNSLRAEDTAVYYCARGYRYDVNWYFDVWGAGTMVTVSS
VL: DIQMTQSPSSLSASVGDRVTITCQASQDINSYLTWFQQKPGKSPKTLIHRANRLVTGVPSRFSGSGSGTDYTFTISSLQPEDIAIYYCLQYDEFPYTFGGGTKVEIKR
notes: humanized, human IgG1 / kappa
Regarding B12, the EC50 in assay [2] is 110 pM; in assay [5], 2190 pM; in assay [3], 550 pM; in assay [4], 540 pM.

B13: 38F8-Hu64 (antibody, human IgG1, kappa, V domains shown)
VH: QVQLVESGGGLVKPGGSLRLSCAASGFTFSNYAMSWVRQAPEKRLEWVASISSGGPTYYPDSVKGRFTISRDNAKNSLYLQMNSLRAEDTAVYYCARGYRYDVNWYFDVWGAGTMVTVSS
VL: DIQMTQSPSSLSASVGDRVTITCQASQDISNYLTWFQQKPGKSPKTLIHRANRLVTGVPSRFSGSGSGTDFTFTISSLQPEDIATYYCLQYDEFPYTFGGGTKVEIKR
notes: humanized, human IgG1 / kappa
On to B13, for which the EC50 is 90 pM in assay [2], 1200 pM in assay [5], 420 pM in assay [3] and 310 pM in assay [4].

B14: 38F8-Hu37 (antibody, human IgG1, kappa, V domains shown)
VH: QVQLVESGGGLVKPGGSLRLSCAASGFTFSNYAMSWVRQAPGKGLEWVASISSGGPTYYADSVKGRFTISRDNAKNSLYLQMNSLRAEDTAVYYCARGYRYDVNWYFDVWGAGTMVTVSS
VL: DIQMTQSPSSLSASVGDRVTITCQASQDISNYLTWFQQKPGKSPKTLIHRANRLVTGVPSRFSGSGSGTDYTFTISSLQPEDIAIYYCLQYDEFPYTFGGGTKVEIKR
notes: humanized, human IgG1 / kappa
For the molecule B14, the EC50 in assay [2] turned out to be 100 pM; in assay [5], 2350 pM; in assay [3] it was 440 pM; in assay [4] it was 310 pM.

B15: 38F8-Hu67 (antibody, human IgG1, kappa, V domains shown)
VH: QVQLVESGGGLVKPGGSLRLSCAASGFTFSNYAMSWVRQAPEKRLEWVASISSGGPTYYPDSVKGRFTISRDNAKNSLYLQMNSLRAEDTAVYYCARGYRYDVNWYFDVWGAGTMVTVSS
VL: DIQMTQSPSSLSASVGDRVTITCQASQDISNYLTWFQQKPGKSPKTLIHRANRLVTGVPSRFSGSGSGTDYTFTISSLQPEDIAIYYCLQYDEFPYTFGGGTKVEIKR
notes: humanized, human IgG1 / kappa
Turning to B15, the EC50 in assay [2] was 100 pM; in assay [5], 840 pM; in assay [3] it was 610 pM; in assay [4], 400 pM.

B16: 38F8-Hu58 (antibody, human IgG1, kappa, V domains shown)
VH: EVQLVESGGGLVQPGGSLRLSCAASGFTFSNYAMSWVRQAPEKRLEWVASISSGGPTYYPDSVKGRFTVSRDNSKNTLYLQMNSLRAEDTAVYYCARGYRYDVNWYFDVWGAGTMVTVSS
VL: DIQMTQSPSSLSASVGDRVTITCQASQDINSYLTWFQQKPGKSPKTLIHRANRLVTGVPSRFSGSGSGTDYTFTISSLQPEDIAIYYCLQYDEFPYTFGGGTKVEIKR
notes: humanized, human IgG1 / kappa
For B16, the EC50 was found to be 90 pM in assay [2], 1450 pM in assay [5], 430 pM in assay [3] and 320 pM in assay [4].
